# Results taken from US9121022B2, “Method for controlling herbicide-resistant plants” (priority 2010, dated 2015).
# Assays:
# Type in all cases: in vivo
# [1] = system: Glyphosate-resistant Palmer amaranth plants having 49 or 63 copies EPSPS; assay: salicylic acid pretreatment before dsRNA and glyphosate (Example 15); settings: 15 millimolar SA 1, 5, or 24 hours before dsRNA; 7 days after glyphosate
# Experimental: Salicylic acid (SA) induces virus resistance in tobacco; see, e.g., Chivasa et al. (1997) Plant Cell, 19:547-557. Glyphosate-resistant Palmer amaranth plants having 49 or 63 copies EPSPS were pretreated with 15 millimolar SA. A solution of the four oligonucleotide-size “short” EPSPS dsRNA molecules (described in Example 1) was applied by hand at 1, 5, or 24 hours after treatment with SA, followed 72 hours later by spraying with glyphosate (1682 g acid equivalent per hectare of Roundup® WeatherMAX® brand herbicide).
# [2] = system: phytoene desaturase (PDS) gene in tomato (Solanum lycopersicum); assay: topical PDS dsRNA on tomato, bleaching and stunting (Example 25); settings: 2.5 micromolar, 40 microliters per plant
# Excerpt: A 201 nucleotide dsRNA polynucleotide with an anti-sense strand capable of hybridizing to the RNA encoded by the sequence […] […] […] (SEQ ID NO:60) which correspond to the nucleotides at positions 1724-1923 of the mRNA transcribed from the tomato PDS gene sequence (SEQ ID NO:59) was synthesized by RT PCR using oligonucleotide primers with the sequences […] (SEQ ID NO:61, sense primer) and […] (SEQ ID NO:62, anti-sense primer). A 2.5 micromolar dsRNA solution was made with the 201 nucleotide dsRNA polynucleotide (SEQ ID NO:60) in 0.01% SILWET L-77® brand surfactant in 5 millimolar sodium phosphate buffer, pH 6.8.
# Three-week old tomato seedlings were treated as follows. Two fully expanded leaves were dipped into a freshly made 0.1% SILWET L-77® brand surfactant solution in double-distilled water for a few seconds. The leaves were allowed to dry for 30 minutes to 1 hour. Each plant was then treated by applying 20 microliters dsRNA solution to the top surface of two SILWET® brand surfactant-treated leaves (total 40 microliters per plant). Control plants were treated with buffer. The plants were kept in a growth chamber for observation. FIG. 30 depicts the systemic silencing of the target gene PDS as evidenced by bleaching of the dsRNA-treated plants 30 days after topical treatment.
# [3] = system: Glyphosate-sensitive Palmer amaranth (Amaranthus palmeri) plants; assay: HPPD, PPO and TIF anti-sense ssDNA with mesotrione, fomesafen or atrazine, plant height (Example 28, Tables 18 and 19); settings: four days after herbicide treatment
# Experimental: The herbicidal activity of ssDNA polynucleotides that target the enzymes […] and protoporphyrinogen oxidase (PPO), and a transcription initiation factor (TIF), and their effect on the herbicide activity when used in combination with the herbicides mesotrione, fomesafen, and atrazine in Palmer amaranth was investigated.
# Glyphosate-sensitive Palmer amaranth (Amaranthus palmeri) plants were grown in 4-inch square pots with Sun Gro® Redi-Earth seedling mix containing 3.5 kg/cubic meter Osmocote® 14-14-14 fertilizer in a greenhouse with 14 h photoperiod and a daytime temperature of 30 degrees Celsius and night temperature of 20 degrees Celsius. The plants were sub-irrigated as necessary.
# Some plants were left untreated and were used as controls. […] Crop oil concentrate (COC) at 1% was added to all herbicide treatments.
# Plant height was determined at four days after herbicide treatment. Data were collected from one experiment with four replications per treatment.
# [4] = system: glyphosate-resistant Palmer amaranth plants having 16 copies of EPSPS; assay: EPSPS tiling-segment polynucleotides, plant height 11 days after herbicide (Example 21); settings: 0.01 nanomole DNA/plant; glyphosate 840 g ae/ha 48 hours later
# Excerpt: Twelve dsRNAs of approximately 250 bp each and having one strand of the dsRNA corresponding to the EPSPS tiled DNA sequences of SEQ ID NOS:41-52 (Table 8) were designed to cover in a tiling fashion the full coding sequence and part of the 5′ and 3′ untranslated regions of the Palmer amaranth EPSPS gene, as depicted in FIG. 25A.
# The four oligonucleotide-size “short” EPSPS dsRNA molecules as described in Example 1 and FIG. 1 are located in the tiling segments 2, 3, 4, and 8 respectively, and are shown as light grey bars within those segments. The polynucleotides were synthesized in vitro transcription using a pBR322 vector with the EPSPS polynucleotides inserted at EcoRI and BamHI cloning sites; plasmid DNA was isolated with Qiagen Maxi prep kits and digested with EcoRI and BamHI restriction enzymes. The digested DNA solution was used in the treatment of the plants without further purification. […]
molecule,measurement,setting,value
O=C(O)c1ccccc1O [Salicylic acid],improvement of the effects of the dsRNAs and glyphosate activity (plant height),[1],No improvement
201 nucleotide dsRNA polynucleotide: dsRNA to positions 1724-1923 of tomato PDS mRNA (SEQ ID NO:59) (nucleic acid) TCGCAGCGACTCAGAAATTATTGATGCAACGATGAAGGAACTAGCAACGCTTTTTCCTGATGAAATTTCAGCAGATCAAAGCAAAGCAAAAATATTGAAGTACCATGTTGTCAAAACTCCGAGGTCTGTTTATAAAACTGTGCCAGGTTGTGAACCCTGTCGGCCTTTACAAAGATCCCCAATAGAGGGGTTTTATTTAG,growth compared to control plants,[2],severely stunted
same,systemic silencing of PDS (FIG. 30),[2]; 30 days after treatment,bleaching
"HPPD anti-sense ssDNA oligonucleotides: 8 HPPD anti-sense ssDNA oligonucleotides (SEQ ID NOS:141-148) (nucleic acid, DNA, backbone and methylation of C not given here) antisense 1: TCCGTAGCTTACATACCGAAG antisense 2: TCCAAGTGAATAGGAGAAACA antisense 3: AGCAGCTTCTGCGTCTTCTAC antisense 4: ACAGCACGCACGCCAAGACCG antisense 5: CGATGTAAGGAATTTGGTAAA antisense 6: CGAGGGGATTGCAGCAGAAGA antisense 7: GTAGGAGAATACGGTGAAGTA antisense 8: GACCCCAAGAAAATCGTCTGC",growth reduction relative to the buffer-surfactant control,[3],32%
"combination of tiling segments 2, 5, 8, and 11: SEQ ID NOS: 42, 45, 48, 51 applied together (nucleic acid, listed as Amaranthus palmeri) chain 1: CACCAACCCACTTTCTCTTTGCCCACCAAAACTTTGGTTTGGTAAGAACTAAGCCCTCTTCTTTCCCTTCTCTCTCTTAAAAGCCTAAAATCCACCTAACTTTTTCAGCCAACAAACAACGCCAAATTCAGAGGAAGAATAATGATGGCTCAAGCTACTACCATCAACAATGGTGTCCATACTGGTCAATTGCACCATACTTTACCCAAAACCCAGTTACCCAAATCTTCAAAAACTCTTAATT chain 2: GAGGGTTGTGGTGGTCTGTTTCCTGTTGGTAAAGATGGAAAGGAAGAGATTCAACTTTTCCTTGGTAATGCAGGAACAGCGATGCGCCCATTGACAGCTGCGGTTGCCGTTGCTGGAGGAAATTCAAGTTATGTGCTTGATGGAGTACCAAGAATGAGGGAGCGCCCCATTGGGGATCTGGTAGCAGGTCTAAAGCAACTTGGTTCAGATGTAGATTGTTTTCTTGGCACAAATTGCCCTCCTGTTCGGG chain 3: ACAAGCAGTTTACAGGGTGATGTAAAATTTGCCGAAGTTCTTGAGAAGATGGGTTGCAAGGTCACCTGGACAGAGAATAGTGTAACTGTTACTGGACCACCCAGGGATTCATCTGGAAAGAAACATCTGCGTGCTATCGACGTCAACATGAACAAAATGCCAGATGTTGCTATGACTCTTGCAGTTGTTGCCTTGTATGCAGATGGGCCCACCGCCATCAGAGATGTGGCTAGCTGGAGAGTGAAGGAAA chain 4: TAATTATGAAATTCTTTGTATTATGTTTGTGAGATTTGAAGTAGCTTATAAATTACAATGTACTAAAGTCTAGAAATAAGTTATGTATCTTTTAAATCAATGAGAAATGCATACTTGAAAGGCTTGACCTTGTATTTGTGACCTAAAGAGTACTAACTTTGGAGTTTCCAACTCATTTGTTTATCTCATTTTTTTTTAATTTTTGATTTAAATTGTTTATTTTTATGAGTAATCATGTATCTTTCTTATTCTAACCAAATGTAATACTCCTTC","efficacy (above-ground height 11 days after herbicide; FIGS. 25B, 25C)",[4],greatest efficacy
"combination of tiling segments 7, 8, and 9: SEQ ID NOS: 47, 48, 49 applied together (nucleic acid, listed as Amaranthus palmeri) chain 1: TTGAAATGACAATAAAGTTGATGGAACGCTTTGGAGTATCCGTAGAACATAGTGATAGTTGGGACAGGTTCTACATTCGAGGTGGTCAGAAATACAAATCTCCTGGAAAGGCATATGTTGAGGGTGATGCTTCAAGTGCTAGCTACTTCCTAGCCGGAGCCGCCGTCACTGGTGGGACTGTCACTGTCAAGGGTTGTGGAACAAGCAGTTTACAGGGTGATGTAAAATTTGCCGAAGTTCTTGAGAAGAT chain 2: ACAAGCAGTTTACAGGGTGATGTAAAATTTGCCGAAGTTCTTGAGAAGATGGGTTGCAAGGTCACCTGGACAGAGAATAGTGTAACTGTTACTGGACCACCCAGGGATTCATCTGGAAAGAAACATCTGCGTGCTATCGACGTCAACATGAACAAAATGCCAGATGTTGCTATGACTCTTGCAGTTGTTGCCTTGTATGCAGATGGGCCCACCGCCATCAGAGATGTGGCTAGCTGGAGAGTGAAGGAAA chain 3: AGATGGGCCCACCGCCATCAGAGATGTGGCTAGCTGGAGAGTGAAGGAAACCGAACGGATGATTGCCATTTGCACAGAACTGAGAAAGCTTGGGGCAACAGTTGAGGAAGGATCTGATTACTGTGTGATCACTCCGCCTGAAAAGCTAAACCCCACCGCCATTGAAACTTATGACGATCACCGAATGGCCATGGCATTCTCTCTTGCTGCCTGTGCAGATGTTCCCGTCACTATCCTTGATCCGGGATGC","efficacy (above-ground height 11 days after herbicide; FIGS. 25B, 25C)",[4],greatest efficacy
